Test [1] has as its target T1, FcγRIIIa extracellular domain with C-terminal His tag (human, UniProt P08637 17-208).
T1 construct: extracellular domain; also called FcgRIIIa; 3a; not shown: His tag attached to the C terminus
Put plainly: SPR (Biacore), antibody captured, FcγR as analyte; binding activity relative to control heterodimerized antibody. As for the experimental part: (§1) The heterodimerized antibodies He Abs in which one of the H chains was introduced with an alteration were assayed for their binding activities to each activating FcγR and inhibitory FcγR according to the method described in Example 4. […] The activating FcγRs in FIGS. 26, 27, 28, and 29 are FcγRIa, FcγRIIa (R), FcγRIIa (H), and FcγRIIIa, respectively.
(§2) Analysis of interaction between objective antibody and the FcγR was carried out using Biacore T100 (GE Healthcare). HBS-EP+ (GE Healthcare) was used as the running buffer, and the measurement temperature was set to 25° C. Chips produced by immobilizing the antigen peptide by the amine coupling method to a Series S Sencor Chip CM5 (GE Healthcare), or alternatively, chips produced by allowing preliminarily biotinylated antigen peptides to interact with and immobilize onto a Series S Sensor Chip SA (certified) (GE Healthcare) were used. Antibodies of interest were captured onto an antigen peptide-immobilized chip, and allowed to interact to each FcγR diluted with running buffer. To regenerate and repeatedly use the chip, the antibodies captured on the chip were washed off by reacting 10 mM glycine-HCl, pH 1.5.
In general terms: Surface plasmon resonance follows binding to a sensor surface in real time, without labels.

Test [2] concerns the target T2, FcγRIIb extracellular domain with C-terminal His tag (human, UniProt P31994 43-217).
T2 construct: extracellular domain; Soluble receptor expressed in FreeStyle293 cells and used as analyte in Biacore; also called FcgRIIb; 2b; not shown: His tag attached to the C terminus
T2 sequence (looked up): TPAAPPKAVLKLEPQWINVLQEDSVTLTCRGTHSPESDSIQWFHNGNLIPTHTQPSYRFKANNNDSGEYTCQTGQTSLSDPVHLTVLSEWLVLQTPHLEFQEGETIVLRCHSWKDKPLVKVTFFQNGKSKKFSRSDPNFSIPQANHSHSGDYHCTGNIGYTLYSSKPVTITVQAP
The description is as above. Here is the method: as §1, §2

Test [3] deals with T1, FcγRIIIa extracellular domain with …. The test can be described thus: SPR (Biacore); He/Con_3a divided by He/Con_2b (FcγRIIIa over FcγRIIb). Here is the method: as §1, §2
In test [4] the target is T3, FcγRIa (human, UniProt P12314 16-292).
T3 construct: extracellular domain; Soluble extracellular domain with C-terminal His tag, used as analyte in Biacore; also called FcgRI; 1a; not shown: His tag attached to the C terminus
Put plainly: SPR (Biacore), antibody captured, FcγR as analyte; relative to GpH7-A5/GpH7-B3/GpL16-k0 = 100.

For a further test, the target named is T4, FcγRIIb (human, UniProt P31994 43-217).
T4 construct: extracellular domain; Soluble extracellular domain with C-terminal His tag, used as analyte in Biacore; also called FcgRIIb; 2b; not shown: His tag attached to the C terminus
T4 sequence (looked up): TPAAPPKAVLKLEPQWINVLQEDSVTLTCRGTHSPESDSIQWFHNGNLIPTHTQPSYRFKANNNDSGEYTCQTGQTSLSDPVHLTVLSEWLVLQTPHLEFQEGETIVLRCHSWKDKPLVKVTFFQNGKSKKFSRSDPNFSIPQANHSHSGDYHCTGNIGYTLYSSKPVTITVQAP
Described as above.

The target in test [5] is T3, FcγRIa. The test can be described thus: SPR (Biacore); He/Con_1a divided by He/Con_2b (binding to FcγRIa against binding to FcγRIIb). Here is the method: as §1, §2

T3 sequence (P12314 16-292): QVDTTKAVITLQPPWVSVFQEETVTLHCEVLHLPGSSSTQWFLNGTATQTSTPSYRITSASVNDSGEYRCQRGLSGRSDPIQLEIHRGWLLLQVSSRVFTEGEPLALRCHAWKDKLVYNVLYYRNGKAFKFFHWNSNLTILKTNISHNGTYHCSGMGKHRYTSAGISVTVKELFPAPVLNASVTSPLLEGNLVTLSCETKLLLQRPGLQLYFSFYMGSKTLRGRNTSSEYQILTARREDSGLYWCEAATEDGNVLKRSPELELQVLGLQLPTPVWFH
T1 sequence (P08637 17-208): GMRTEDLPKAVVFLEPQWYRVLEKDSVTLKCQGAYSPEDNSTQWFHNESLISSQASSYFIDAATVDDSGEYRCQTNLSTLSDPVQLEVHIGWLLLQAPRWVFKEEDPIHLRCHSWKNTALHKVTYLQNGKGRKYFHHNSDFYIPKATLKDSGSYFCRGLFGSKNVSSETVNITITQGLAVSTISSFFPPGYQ

B1: GpH7-A5/GpH7-B3 variant E269_11K/GpL16-k0 (antibody, human IgG1, kappa)
heavy 1: not shown
heavy 2: not shown
light: DIVMTQSPLSLPVTPGEPASISCQASESLVHSNRNTYLHWYLQKPGQSPQLLIYKVSNRFSGVPDRFSGSGSGTDFTLKISRVEAEDVGVYYCSQNTHVPPTFGQGTKVEIERTVAAPSVFIFPPSDEQLKSGTASVVCLLNNFYPREAKVQWKVDNALQSGNSQESVTEQDSKDSTYSLSSTLTLSKADYEKHKVYACEVTHQGLSSPVTKSFNRGEC
notes: Heterodimerized anti-glypican-3 IgG1 with the alteration in only one H chain; also called He Ab
Regarding B1, the He/Con_3a in test [1] was 44 % of GpH7-A5/GpH7-B3/GpL16-k0 (=100). The He/Con_2b in test [2] is 17.8 % of GpH7-A5/GpH7-B3/GpL16-k0 (=100). The molecule further had a He_3a/2b in test [3] of 2.47 ratio.

B2: GpH7-A5/GpH7-B3 variant G237_02A/GpL16-k0 (antibody, human IgG1, kappa)
heavy 1: not shown
heavy 2: not shown
light: DIVMTQSPLSLPVTPGEPASISCQASESLVHSNRNTYLHWYLQKPGQSPQLLIYKVSNRFSGVPDRFSGSGSGTDFTLKISRVEAEDVGVYYCSQNTHVPPTFGQGTKVEIERTVAAPSVFIFPPSDEQLKSGTASVVCLLNNFYPREAKVQWKVDNALQSGNSQESVTEQDSKDSTYSLSSTLTLSKADYEKHKVYACEVTHQGLSSPVTKSFNRGEC
notes: Heterodimerized anti-glypican-3 IgG1; alteration in the GpH7-B3 chain only; also called He Ab
Consider B2, for which, in the test with FcγRIa [4], the He/Con_1a is 90.3 % of control (=100). In the test with FcγRIIb, the He/Con_2b is 124 % of control (=100). Moreover, the “He_1a/2b (Ia/IIb)” value with FcγRIa [5] is 0.73 ratio.

B3: GpH7-A5/GpH7-B3 variant P271_20W/GpL16-k0 (antibody, human IgG1, kappa)
heavy 1: not shown
heavy 2: not shown
light: DIVMTQSPLSLPVTPGEPASISCQASESLVHSNRNTYLHWYLQKPGQSPQLLIYKVSNRFSGVPDRFSGSGSGTDFTLKISRVEAEDVGVYYCSQNTHVPPTFGQGTKVEIERTVAAPSVFIFPPSDEQLKSGTASVVCLLNNFYPREAKVQWKVDNALQSGNSQESVTEQDSKDSTYSLSSTLTLSKADYEKHKVYACEVTHQGLSSPVTKSFNRGEC
notes: as for B1
As to B3, the He/Con_3a in test [1] was 74.1 % of GpH7-A5/GpH7-B3/GpL16-k0 (=100). Further, the He/Con_2b in test [2] is 58.1 % of GpH7-A5/GpH7-B3/GpL16-k0 (=100). The same molecule yielded a He_3a/2b in test [3] of 1.28 ratio.

B4: GpH7-A5/GpH7-B3 variant G237_04F/GpL16-k0 (antibody, human IgG1, kappa)
heavy 1: not shown
heavy 2: not shown
light: DIVMTQSPLSLPVTPGEPASISCQASESLVHSNRNTYLHWYLQKPGQSPQLLIYKVSNRFSGVPDRFSGSGSGTDFTLKISRVEAEDVGVYYCSQNTHVPPTFGQGTKVEIERTVAAPSVFIFPPSDEQLKSGTASVVCLLNNFYPREAKVQWKVDNALQSGNSQESVTEQDSKDSTYSLSSTLTLSKADYEKHKVYACEVTHQGLSSPVTKSFNRGEC
notes: as for B2
For the molecule B4, in the test with FcγRIa [4], the He/Con_1a was 81.5 % of control (=100). In the test with FcγRIIb, the He/Con_2b was 149 % of control (=100). Besides, the “He_1a/2b (Ia/IIb)” value with FcγRIa [5] was 0.55 ratio.

B5: GpH7-A5/GpH7-B3 variant E269_19Q/GpL16-k0 (antibody, human IgG1, kappa)
heavy 1: not shown
heavy 2: not shown
light: DIVMTQSPLSLPVTPGEPASISCQASESLVHSNRNTYLHWYLQKPGQSPQLLIYKVSNRFSGVPDRFSGSGSGTDFTLKISRVEAEDVGVYYCSQNTHVPPTFGQGTKVEIERTVAAPSVFIFPPSDEQLKSGTASVVCLLNNFYPREAKVQWKVDNALQSGNSQESVTEQDSKDSTYSLSSTLTLSKADYEKHKVYACEVTHQGLSSPVTKSFNRGEC
notes: as for B1
Turning to B5, the He/Con_3a in test [1] is 65 % of GpH7-A5/GpH7-B3/GpL16-k0 (=100). The He/Con_2b in test [2] is 44.3 % of GpH7-A5/GpH7-B3/GpL16-k0 (=100). In test [3], this molecule showed a He_3a/2b of 1.47 ratio.

B6: GpH7-A5/GpH7-B3 variant E269_18N/GpL16-k0 (antibody, human IgG1, kappa)
heavy 1: not shown
heavy 2: not shown
light: DIVMTQSPLSLPVTPGEPASISCQASESLVHSNRNTYLHWYLQKPGQSPQLLIYKVSNRFSGVPDRFSGSGSGTDFTLKISRVEAEDVGVYYCSQNTHVPPTFGQGTKVEIERTVAAPSVFIFPPSDEQLKSGTASVVCLLNNFYPREAKVQWKVDNALQSGNSQESVTEQDSKDSTYSLSSTLTLSKADYEKHKVYACEVTHQGLSSPVTKSFNRGEC
notes: as for B1
Turning to B6, the He/Con_3a in test [1] is 57.8 % of GpH7-A5/GpH7-B3/GpL16-k0 (=100). Moreover, the He/Con_2b in test [2] is 44.8 % of GpH7-A5/GpH7-B3/GpL16-k0 (=100). The He_3a/2b in test [3] was determined as 1.29 ratio.

B7: GpH7-A5/GpH7-B3 variant G237_06M/GpL16-k0 (antibody, human IgG1, kappa)
heavy 1: not shown
heavy 2: not shown
light: DIVMTQSPLSLPVTPGEPASISCQASESLVHSNRNTYLHWYLQKPGQSPQLLIYKVSNRFSGVPDRFSGSGSGTDFTLKISRVEAEDVGVYYCSQNTHVPPTFGQGTKVEIERTVAAPSVFIFPPSDEQLKSGTASVVCLLNNFYPREAKVQWKVDNALQSGNSQESVTEQDSKDSTYSLSSTLTLSKADYEKHKVYACEVTHQGLSSPVTKSFNRGEC
notes: as for B2
Take B7: the He/Con_1a in the test with FcγRIa [4] was 81.6 % of control (=100). In the test with FcγRIIb, the He/Con_2b was 130 % of control (=100). Further, in the test with FcγRIa [5], the “He_1a/2b (Ia/IIb)” value was determined as 0.63 ratio.

(Values after patent US20150344570A1 (published 2015).)
